Results on four substances are retold here after patent publication US20250346669A1.

The assay deals with CD3 on CD3 expressing Jurkat cells (UniProt P07766). As to the kind of experiment: flow cytometry on CD3 expressing Jurkat cells; concentration of half maximal binding. On the technique in general: A flow cytometer gives signals particle by particle.
The EC50 is the concentration at which the effect is half-maximal. A low value points to greater potency. As to “OKT3 (IgG version of the monospecific anti-CD3 antibody)”, the EC50 amounted to 300 pM.
The value for OKT3 Fab fragment was 23700 pM; that for “UCHT1 (IgG version of the monospecific anti-CD3 antibody)” was 600 pM; that for UCHT1 Fab fragment was 600 pM.
